Reference: the supplement of paper PMC11780869

System: Bacillus subtilis
Assay: cleaved RNA product abundance (RNA/gDNA barcode ratio) relative to median wild-type variant (ratio to wild type); higher = more accumulation of the downstream cleavage product
Conditions: cleavage site: cggR-gapA (positions -7 to +36 mutated)
In short: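 B. subtilis strains with chromosomally integrated reporter mRNAs (truncated aprE or tetM) holding barcoded, mutagenized RNase Y cleavage-site windows grew in LB at 37°C from OD600 0.0003 to 0.3. Cleaved product abundance is each construct's RNA:gDNA barcode ratio, scaled to the median construct with the unmutated site. It came from sequencing barcodes of gel-selected, reverse-transcribed cleaved RNA and of genomic DNA.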

[1] = experiment (reporter, strain, medium): exp 2b: truncated aprE reporter, strain BJT200
[2] = experiment (reporter, strain, medium): exp 4a: truncated aprE reporter, strain BJT201 with 2% xylose (RNase J1 expressed)
[3] = experiment (reporter, strain, medium): exp 6: tetM reporter, strain 168

| Sequence | cleaved RNA product abundance [1] | cleaved RNA product abundance [2] | cleaved RNA product abundance [3] |
| --- | --- | --- | --- |
| ACAGACGAAGGAGCCGCAAAGTAGTTATTAAGGGATGAATAATCCCACAATATAAATATCTCTCACTTATTTAAA | 0.199 | 0.223 |  |
| ACAGACGAAGGAGCCGCAAAGTAGTTATTAAGGGATGAATAATCCCTAAATATAAATATCTCTCACTTATTTAAA |  | 0.55 |  |
| ACAGACGAAGGAGCCGCAAAGTAGTTATTAAGGGATGAATAATCCCTCAAAATAAATATCTCTCACTTATTTAAA | 0.289 | 0.425 | 0.282 |
| ACAGACGAAGGAGCCGCAAAGTAGTTATTAAGGGATGAATAATCCCTCAATACAAATATCTCTCACTTATTTAAA |  | 0.0777 |  |
| ACAGACGAAGGAGCCGCAAAGTAGTTATTAAGGGATGAATAATCCCTCAATATAAATATCTCTCACTTATTTAAA | 0.953 | 0.98 | 1.09 |
| ACAGACGAAGGAGCCGCAAAGTAGTTATTAAGGGATGAATAATCCCTCAATATAATTATCTCTCACTTATTTAAA |  | 0.437 |  |
| ACAGACGAAGGAGCCGCAAAGTAGTTATTAAGGGATGAATAATCCCTCAATATACATATCTCTCACTTATTTAAA |  | 0.664 |  |
| ACAGACGAAGGAGCCGCAAAGTAGTTATTAAGGGATGAATAATCCCTCAATATATATATCTCTCACTTATTTAAA |  | 0.884 |  |
| ACAGACGAAGGAGCCGCAAAGTAGTTATTAAGGGATGAATAATCCCTCAATCTAAATATCTCTCACTTATTTAAA |  | 0.0783 |  |
| ACAGACGAAGGAGCCGCAAAGTAGTTATTAAGGGATGAATAATCCCTCAATGTAAATATCTCTCACTTATTTAAA |  | 0.13 |  |
| ACAGACGAAGGAGCCGCAAAGTAGTTATTAAGGGATGAATAATCCCTCAATTTAAATATCTCTCACTTATTTAAA |  | 0.221 |  |
| ACAGACGAAGGAGCCGCAAAGTAGTTATTAAGGGATGAATAATCCCTCATTATAAATATCTCTCACTTATTTAAA |  | 0.396 |  |
| ACAGACGAAGGAGCCGCAAAGTAGTTATTAAGGGATGAATAATCCCTCCATATAAATATCTCTCACTTATTTAAA | 0.299 | 0.487 |  |
| ACAGACGAAGGAGCCGCAAAGTAGTTATTAAGGGATGAATAATCCCTGAATATAAATATCTCTCACTTATTTAAA | 0.409 | 0.524 |  |
| ACAGACGAAGGAGCCGCAAAGTAGTTATTAAGGGATGAATAATCCCTTAATATAAATATCTCTCACTTATTTAAA | 0.869 |  | 0.729 |
| ACAGACGAAGGAGCCGCAAAGTAGTTATTAAGGGATGAATAATCCTTCAATATAAATATCTCTCACTTATTTAAA |  | 0.543 |  |
| ACAGACGAAGGAGCCGCAAAGTAGTTATTAAGGGATGAATAATCTCTCAATATAAATATCTCTCACTTATTTAAA |  | 0.802 |  |
| ACAGACGAAGGAGCCGCAAAGTAGTTATTAAGGGATGAATAATTCCTCAATATAAATATCTCTCACTTATTTAAA |  | 0.75 |  |
| ACAGACGAAGGAGCCGCAAAGTAGTTATTAAGGGATGAATAGTCCCTCAATATAAATATCTCTCACTTATTTAAA |  | 0.883 |  |
| ACAGACGAAGGAGCCGCAAAGTAGTTATTAAGGGATGAATATTCCCTCAATATAAATATCTCTCACTTATTTAAA | 0.716 |  |  |
| ACAGACGAAGGAGCCGCAAAGTAGTTATTAAGGGATGGATAATCCCTCAATATAAATATCTCTCACTTATTTAAA |  | 0.537 |  |
| ACAGACGAAGGAGCCGCAAAGTAGTTATTAAGGGATTAATAATCCCTCAATATAAATATCTCTCACTTATTTAAA |  | 1.14 |  |
| ACAGACGAAGGAGCCGCAAAGTAGTTATTAAGGGTTGAATAATCCCTCAATATAAATATCTCTCACTTATTTAAA |  | 0.364 |  |

| Sequence | cleaved RNA product abundance [1] | cleaved RNA product abundance [2] | cleaved RNA product abundance [3] |
| --- | --- | --- | --- |
| ACAGACGAAGGAGCCGCAAAGTAGTTATTAAGGTATGAATAATCCCTCAATATAAATATCTCTCACTTATTTAAA |  | 0.0907 |  |
| ACAGACGAAGGAGCCGCAAAGTAGTTATTAAGTGATGAATAATCCCTCAATATAAATATCTCTCACTTATTTAAA | 0.106 | 0.116 |  |
| ACAGACGAAGGAGCCGCAAAGTAGTTATTAATGGATGAATAATCCCTCAATATAAATATCTCTCACTTATTTAAA | 0.0916 | 0.166 |  |
| ACAGACGAAGGAGCCGCAAAGTAGTTATTATGGGATGAATAATCCCTCAATATAAATATCTCTCACTTATTTAAA |  | 0.445 |  |
| ACAGACGAAGGAGCCGCAAAGTAGTTATTTAGGGATGAATAATCCCTCAATATAAATATCTCTCACTTATTTAAA | 0.726 | 0.869 |  |
| ACAGACGAAGGAGCCGCAAAGTAGTTCTTAAGGGATGAATAATCCCTCAATATAAATATCTCTCACTTATTTAAA |  | 0.195 |  |
| ACAGACGAAGGAGCCGCAAAGTAGTTTTTAAGGGATGAATAATCCCTCAATATAAATATCTCTCACTTATTTAAA |  | 0.37 |  |
| ACAGACGAAGGAGCCGCAAAGTATTTATTAAGGGATGAATAATCCCTCAATATAAATATCTCTCACTTATTTAAA | 0.85 | 0.594 |  |
| ACAGACGAAGGAGCCGCAAAGTCGTTATTAAGGGATGAATAATCCCTCAATATAAATATCTCTCACTTATTTAAA |  | 0.9 |  |
| ACAGACGAAGGAGCCGCAAATAAATAATTAAGGGATGAATAATCCCTCAATATAAATATCTCTCACTTATTTAAA |  | 0.336 |  |
| ACAGACGAAGGAGCCGCAAATAAATTATTAAGGAATGAATAATCCCTCAATATAAATATCTCTCACTTATTTAAA |  | 0.195 |  |
| ACAGACGAAGGAGCCGCAAATAAATTATTAAGGGAAGAATAATCCCTCAATATAAATATCTCTCACTTATTTAAA |  | 0.369 |  |
| ACAGACGAAGGAGCCGCAAATAAATTATTAAGGGATGAATAATACCTCAATATAAATATCTCTCACTTATTTAAA |  | 0.0858 |  |
| ACAGACGAAGGAGCCGCAAATAAATTATTAAGGGATGAATAATCCCCCAATATAAATATCTCTCACTTATTTAAA |  | 0.381 |  |
| ACAGACGAAGGAGCCGCAAATAAATTATTAAGGGATGAATAATCCCTCAACATAAATATCTCTCACTTATTTAAA |  | 0.396 |  |
| ACAGACGAAGGAGCCGCAAATAAATTATTAAGGGATGAATAATCCCTCAATATAAATATCTCTCACTTATTTAAA | 0.807 | 0.801 |  |
| ACAGACGAAGGAGCCGCAAATAAATTATTAAGGGATGAATATTCCCTCAATATAAATATCTCTCACTTATTTAAA |  | 0.421 |  |
| ACAGACGAAGGAGCCGCAAATAACTTATTAAGGGATGAATAATCCCTCAATATAAATATCTCTCACTTATTTAAA | 0.465 | 0.465 | 0.719 |
| ACAGACGAAGGAGCCGCAAATAAGATATTAAGGGATGAATAATCCCTCAATATAAATATCTCTCACTTATTTAAA |  | 1.08 | 0.738 |
| ACAGACGAAGGAGCCGCAAATAAGCTATTAAGGGATGAATAATCCCTCAATATAAATATCTCTCACTTATTTAAA |  | 0.149 |  |
| ACAGACGAAGGAGCCGCAAATAAGTAATTAAGGGATGAATAATCCCTCAATATAAATATCTCTCACTTATTTAAA | 0.246 | 0.339 |  |
| ACAGACGAAGGAGCCGCAAATAAGTCATTAAGGGATGAATAATCCCTCAATATAAATATCTCTCACTTATTTAAA |  | 0.28 |  |
| ACAGACGAAGGAGCCGCAAATAAGTTAATAAGGGATGAATAATCCCCCAATATAAATATCTCTCACTTATTTAAA | 0.208 |  |  |
